These are literature values, as cited in paper PMC12188480.

The target of this data set is c-MET (Homo sapiens) (UniProt P08581).
Chain of c-MET (Homo sapiens) (P08581 25-932): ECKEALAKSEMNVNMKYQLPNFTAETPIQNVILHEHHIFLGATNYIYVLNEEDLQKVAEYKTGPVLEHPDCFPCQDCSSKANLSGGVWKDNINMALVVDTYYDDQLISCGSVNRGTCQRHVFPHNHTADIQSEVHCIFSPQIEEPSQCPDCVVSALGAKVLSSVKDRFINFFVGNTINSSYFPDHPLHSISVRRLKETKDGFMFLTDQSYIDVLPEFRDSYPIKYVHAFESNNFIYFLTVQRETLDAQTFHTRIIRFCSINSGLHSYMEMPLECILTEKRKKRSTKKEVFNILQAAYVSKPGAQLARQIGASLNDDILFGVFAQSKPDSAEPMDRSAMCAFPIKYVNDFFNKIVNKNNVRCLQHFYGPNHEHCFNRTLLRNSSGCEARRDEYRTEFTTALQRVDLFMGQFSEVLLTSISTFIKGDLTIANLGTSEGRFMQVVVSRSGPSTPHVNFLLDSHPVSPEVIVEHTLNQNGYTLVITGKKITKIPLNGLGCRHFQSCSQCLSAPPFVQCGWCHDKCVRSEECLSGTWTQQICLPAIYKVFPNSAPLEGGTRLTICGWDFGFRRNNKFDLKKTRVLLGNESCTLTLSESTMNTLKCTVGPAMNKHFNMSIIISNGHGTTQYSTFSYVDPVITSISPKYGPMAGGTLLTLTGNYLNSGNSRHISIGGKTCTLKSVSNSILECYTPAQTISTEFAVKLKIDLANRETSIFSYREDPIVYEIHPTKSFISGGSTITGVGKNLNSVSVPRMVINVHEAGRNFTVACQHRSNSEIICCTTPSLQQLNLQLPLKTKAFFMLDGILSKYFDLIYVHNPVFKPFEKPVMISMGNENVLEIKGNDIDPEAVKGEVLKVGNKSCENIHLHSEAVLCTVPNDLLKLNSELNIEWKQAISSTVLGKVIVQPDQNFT

For the substance onartuzumab, the Kd was 1.2 nM.

Broadly, the Kd is the constant that tells how readily two partners part at equilibrium.
